Values quoted from earlier work in patent publication US9408889B2, “Fusion peptide designed to reduce plaque bacteria and yeast in the oral cavity” (RUTGERS, THE STATE UNIVERSITY OF NEW JERSEY, priority 2011, dated 2016).

Test system: Streptococcus mutans
Details: full length Lf variant expressed in an insect vector

B1: arginine variant: full length lactoferrin (Lf) variant with arginine at position 29, the more common variant (protein, UniProt P02788 1-710, looked up)
chain: MKLVFLVLLFLGALGLCLAGRRRSVQWCAVSQPEATKCFQWQRNMRKVRGPPVSCIKRDSPIQCIQAIAENRADAVTLDGGFIYEAGLAPYKLRPVAAEVYGTERQPRTHYYAVAVVKKGGSFQLNELQGLKSCHTGLRRTAGWNVPIGTLRPFLNWTGPPEPIEAAVARFFSASCVPGADKGQFPNLCRLCAGTGENKCAFSSQEPYFSYSGAFKCLRDGAGDVAFIRESTVFEDLSDEAERDEYELLCPDNTRKPVDKFKDCHLARVPSHAVVARSVNGKEDAIWNLLRQAQEKFGKDKSPKFQLFGSPSGQKDLLFKDSAIGFSRVPPRIDSGLYLGSGYFTAIQNLRKSEEEVAARRARVVWCAVGEQELRKCNQWSGLSEGSVTCSSASTTEDCIALVLKGEADAMSLDGGYVYTAGKCGLVPVLAENYKSQQSSDPDPNCVDRPVEGYLAVAVVRRSDTSLTWNSVKGKKSCHTAVDRTAGWNIPMGLLFNQTGSCKFDEYFSQSCAPGSDPRSNLCALCIGDEQGENKCVPNSNERYYGYTGAFRCLAENAGDVAFVKDVTVLQNTDGNNNEAWAKDLKLADFALLCLDGKRKPVTEARSCHLAMAPNHAVVSRMDKVERLKQVLLHQQAKFGRNGSDCPDKFCLFQSETKNLLFNDNTECLARLHGKTTYEKYLGPQYVAGITNLKKCSTSPLLEACEFLRK
modifications: full-length
notes: full length lactoferrin (Lf) variant with arginine at position 29, the more common variant
effect on survival of S. mutans: little to no effect
